First the molecules themselves.
B1: Speckle-type POZ protein (Homo sapiens), O43791 (parent)
chain: MSRVPSPPPPAEMSSGPVAESWCYTQIKVVKFSYMWTINNFSFCREEMGEVIKSSTFSSGANDKLKWCLRVNPKGLDEESKDYLSLYLLLVSCPKSEVRAKFKFSILNAKGEETKAMESQRAYRFVQGKDWGFKKFIRRDFLLDEANGLLPDDKLTLFCEVSVVQDSVNISGQNTMNMVKVPECRLADELGGLWENSRFTDCCLCVAGQEFQAHKAILAARSPVFSAMFEHEMEESKKNRVEINDVEPEVFKEMMCFIYTGKAPNLDKMADDLLAAADKYALERLKVMCEDALCSNLSVENAAEILILADLHSADQLKTQAVDFINYHASDVLETSGWKSMVVSHPHLVAEAYRSLASAQCPFLGPPRKRLKQS
partner: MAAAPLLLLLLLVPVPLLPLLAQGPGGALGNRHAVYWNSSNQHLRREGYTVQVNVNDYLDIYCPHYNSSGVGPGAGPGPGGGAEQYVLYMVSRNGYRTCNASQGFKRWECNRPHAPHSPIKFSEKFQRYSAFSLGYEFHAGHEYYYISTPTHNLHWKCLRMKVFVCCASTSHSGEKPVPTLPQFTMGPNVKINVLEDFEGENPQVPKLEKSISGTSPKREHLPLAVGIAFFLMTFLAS
B2: Speckle-type POZ protein (Homo sapiens), O43791 (parent)
chain: B1 chain
partner: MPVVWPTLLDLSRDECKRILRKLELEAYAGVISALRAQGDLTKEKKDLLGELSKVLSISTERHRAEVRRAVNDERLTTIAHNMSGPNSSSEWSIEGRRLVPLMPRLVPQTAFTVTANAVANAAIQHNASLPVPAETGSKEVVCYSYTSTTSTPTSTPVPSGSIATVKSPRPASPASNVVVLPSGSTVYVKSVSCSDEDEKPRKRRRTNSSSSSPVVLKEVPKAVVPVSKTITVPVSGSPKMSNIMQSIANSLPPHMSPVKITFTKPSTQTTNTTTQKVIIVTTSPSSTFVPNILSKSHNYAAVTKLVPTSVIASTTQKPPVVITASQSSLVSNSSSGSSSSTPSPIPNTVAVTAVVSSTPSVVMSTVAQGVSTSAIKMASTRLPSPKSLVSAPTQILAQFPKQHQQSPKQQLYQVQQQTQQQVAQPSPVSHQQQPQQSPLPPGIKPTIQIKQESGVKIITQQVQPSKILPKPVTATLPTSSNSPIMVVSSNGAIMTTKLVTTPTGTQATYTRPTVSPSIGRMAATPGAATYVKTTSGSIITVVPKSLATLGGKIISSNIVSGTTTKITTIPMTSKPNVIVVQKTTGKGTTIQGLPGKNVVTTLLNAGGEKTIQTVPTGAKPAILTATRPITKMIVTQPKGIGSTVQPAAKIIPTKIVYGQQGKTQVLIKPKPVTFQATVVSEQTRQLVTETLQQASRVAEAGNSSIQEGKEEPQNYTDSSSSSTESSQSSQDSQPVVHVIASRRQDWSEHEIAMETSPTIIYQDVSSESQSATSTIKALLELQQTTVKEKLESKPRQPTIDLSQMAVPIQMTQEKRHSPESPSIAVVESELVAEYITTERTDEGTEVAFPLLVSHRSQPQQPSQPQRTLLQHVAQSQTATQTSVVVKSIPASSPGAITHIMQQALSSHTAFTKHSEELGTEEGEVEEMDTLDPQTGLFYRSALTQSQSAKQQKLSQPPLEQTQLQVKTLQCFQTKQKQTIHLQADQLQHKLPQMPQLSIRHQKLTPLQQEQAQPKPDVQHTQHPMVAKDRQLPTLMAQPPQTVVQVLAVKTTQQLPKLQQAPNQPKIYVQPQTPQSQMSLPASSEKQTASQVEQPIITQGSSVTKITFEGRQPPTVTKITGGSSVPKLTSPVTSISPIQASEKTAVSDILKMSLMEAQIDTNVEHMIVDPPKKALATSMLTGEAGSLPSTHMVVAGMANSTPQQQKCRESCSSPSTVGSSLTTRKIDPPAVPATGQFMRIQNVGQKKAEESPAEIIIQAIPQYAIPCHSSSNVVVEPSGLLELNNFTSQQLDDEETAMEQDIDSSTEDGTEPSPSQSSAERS
B3: Speckle-type POZ protein (Homo sapiens), O43791 (parent)
chain: B1 chain
partner: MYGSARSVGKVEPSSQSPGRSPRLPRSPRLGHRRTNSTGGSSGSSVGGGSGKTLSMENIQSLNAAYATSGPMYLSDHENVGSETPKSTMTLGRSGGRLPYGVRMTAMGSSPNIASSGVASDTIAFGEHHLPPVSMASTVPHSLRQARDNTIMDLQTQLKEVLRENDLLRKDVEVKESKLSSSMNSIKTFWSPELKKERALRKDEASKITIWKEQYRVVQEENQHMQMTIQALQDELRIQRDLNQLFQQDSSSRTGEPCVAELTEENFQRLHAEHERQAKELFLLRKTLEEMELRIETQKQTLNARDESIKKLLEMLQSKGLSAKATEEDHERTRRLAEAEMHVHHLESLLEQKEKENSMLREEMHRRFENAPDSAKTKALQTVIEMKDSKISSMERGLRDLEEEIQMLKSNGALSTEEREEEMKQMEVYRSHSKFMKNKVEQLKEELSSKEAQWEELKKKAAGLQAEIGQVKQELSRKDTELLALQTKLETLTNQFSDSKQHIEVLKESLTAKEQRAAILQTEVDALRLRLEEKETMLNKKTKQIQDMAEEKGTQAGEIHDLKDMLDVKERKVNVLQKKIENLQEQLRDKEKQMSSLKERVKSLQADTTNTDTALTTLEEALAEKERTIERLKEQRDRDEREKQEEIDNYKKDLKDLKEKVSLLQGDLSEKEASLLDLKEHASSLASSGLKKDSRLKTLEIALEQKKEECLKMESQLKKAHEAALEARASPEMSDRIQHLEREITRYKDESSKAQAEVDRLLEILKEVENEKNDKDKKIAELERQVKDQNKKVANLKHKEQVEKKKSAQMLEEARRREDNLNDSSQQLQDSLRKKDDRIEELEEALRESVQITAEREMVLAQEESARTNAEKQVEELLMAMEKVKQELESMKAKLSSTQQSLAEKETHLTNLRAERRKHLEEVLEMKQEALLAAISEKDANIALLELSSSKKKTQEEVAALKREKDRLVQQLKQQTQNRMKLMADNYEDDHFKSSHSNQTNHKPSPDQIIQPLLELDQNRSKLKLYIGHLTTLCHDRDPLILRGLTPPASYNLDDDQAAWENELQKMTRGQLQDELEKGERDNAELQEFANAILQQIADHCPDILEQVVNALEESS

The variants in the first assay derive from B1. The settings on record: with efna3_human EFNA3, P52797.
MSRVPSPPPPAEMSSGPVAESWCYTQIKVVKFSYMWTINNFSFCREEMGEVIKSSTFSSGANDKLKWCLRVNPKGLDEESKDYLSLCLLLVSCPKSEVRAKFKFSILNAKGEETKAMESQRAYRFVQGKDWGFKKFIRRDFLLDEANGLLPDDKLTLFCEVSVVQDSVNISGQNTMNMVKVPECRLADELGGLWENSRFTDCCLCVAGQEFQAHKAILAARSPVFSAMFEHEMEESKKNRVEINDVEPEVFKEMMCFIYTGKAPNLDKMADDLLAAADKYALERLKVMCEDALCSNLSVENAAEILILADLHSADQLKTQAVDFINYHASDVLETSGWKSMVVSHPHLVAEAYRSLASAQCPFLGPPRKRLKQS [Y87C]: the “effect of a mutation on the interaction” value is listed as “with no effect”.

Variants of B1 are the subject of the next assay. The settings on record: with efna3_human EFNA3, P52797. The source holds these as a separate data set.
With MSRVPSPPPPAEMSSGPVAESWCYTQIKVVKFSYMWTINNFSFCREEMGEVIKSSTFSSGANDKLKWCLRVNPKGLDEESKDYLSLYLLLVSCPKSEVRAKCKFSILNAKGEETKAMESQRAYRFVQGKDWGFKKFIRRDFLLDEANGLLPDDKLTLFCEVSVVQDSVNISGQNTMNMVKVPECRLADELGGLWENSRFTDCCLCVAGQEFQAHKAILAARSPVFSAMFEHEMEESKKNRVEINDVEPEVFKEMMCFIYTGKAPNLDKMADDLLAAADKYALERLKVMCEDALCSNLSVENAAEILILADLHSADQLKTQAVDFINYHASDVLETSGWKSMVVSHPHLVAEAYRSLASAQCPFLGPPRKRLKQS [F102C], the “effect of a mutation on the interaction” value is reported as “with no effect”.

The variants in another assay derive from B2. The following applies: with emsy_human EMSY.
In the case of MSRVPSPPPPAEMSSGPVAESWCYTQIKVVKFSYMWTINNFSFCREEMGEVIKSSTFSSGANDKLKWCLRVNPKGLDEESKDYLSLYLLLVSCPKSEVRAKCKFSILNAKGEETKAMESQRAYRFVQGKDWGFKKFIRRDFLLDEANGLLPDDKLTLFCEVSVVQDSVNISGQNTMNMVKVPECRLADELGGLWENSRFTDCCLCVAGQEFQAHKAILAARSPVFSAMFEHEMEESKKNRVEINDVEPEVFKEMMCFIYTGKAPNLDKMADDLLAAADKYALERLKVMCEDALCSNLSVENAAEILILADLHSADQLKTQAVDFINYHASDVLETSGWKSMVVSHPHLVAEAYRSLASAQCPFLGPPRKRLKQS [F102C], the “effect of a mutation on the interaction” value is “with no effect”.

The variants in the next assay derive from B2. The settings on record: with emsy_human EMSY. The source holds these as a separate data set.
Consider MSRVPSPPPPAEMSSGPVAESWCYTQIKVVKFSYMWTINNFSFCREEMGEVIKSSTFSSGANDKLKWCLRVNPKGLDEESKDYLSLYLLLVSCPKSEVRAKFKFSILNAKGEETKAMESQRAYRFVQGKDWGVKKFIRRDFLLDEANGLLPDDKLTLFCEVSVVQDSVNISGQNTMNMVKVPECRLADELGGLWENSRFTDCCLCVAGQEFQAHKAILAARSPVFSAMFEHEMEESKKNRVEINDVEPEVFKEMMCFIYTGKAPNLDKMADDLLAAADKYALERLKVMCEDALCSNLSVENAAEILILADLHSADQLKTQAVDFINYHASDVLETSGWKSMVVSHPHLVAEAYRSLASAQCPFLGPPRKRLKQS [F133V], for which the “effect of a mutation on the interaction” value is on record as “with no effect”.

A further assay covers variants of B2. The following applies: with emsy_human EMSY. The source holds these as a separate data set.
In the case of MSRVPSPPPPAEMSSGPVAESWCYTQIKVVKFSYMWTINNFSFCREEMGEVIKSSTFSSGANDKLKWCLRVNPKGLDEESKDYLSLYLLLVSCPKSEVRAKFKFSILNAKGEETKAMESQRAYRFVQGKDWGLKKFIRRDFLLDEANGLLPDDKLTLFCEVSVVQDSVNISGQNTMNMVKVPECRLADELGGLWENSRFTDCCLCVAGQEFQAHKAILAARSPVFSAMFEHEMEESKKNRVEINDVEPEVFKEMMCFIYTGKAPNLDKMADDLLAAADKYALERLKVMCEDALCSNLSVENAAEILILADLHSADQLKTQAVDFINYHASDVLETSGWKSMVVSHPHLVAEAYRSLASAQCPFLGPPRKRLKQS [F133L], the “effect of a mutation on the interaction” value is recorded as “with no effect”.

The next assay covers variants of B2. The settings on record: with emsy_human EMSY. The source holds these as a separate data set.
For MSRVPSPPPPAEMSSGPVAESWCYTQIKVVKFSYMWTINNFSFCREEMGEVIKSSTFSSGANDKLKWCLRVNPKGLDEESKDYLSLCLLLVSCPKSEVRAKFKFSILNAKGEETKAMESQRAYRFVQGKDWGFKKFIRRDFLLDEANGLLPDDKLTLFCEVSVVQDSVNISGQNTMNMVKVPECRLADELGGLWENSRFTDCCLCVAGQEFQAHKAILAARSPVFSAMFEHEMEESKKNRVEINDVEPEVFKEMMCFIYTGKAPNLDKMADDLLAAADKYALERLKVMCEDALCSNLSVENAAEILILADLHSADQLKTQAVDFINYHASDVLETSGWKSMVVSHPHLVAEAYRSLASAQCPFLGPPRKRLKQS [Y87C], the “effect of a mutation on the interaction” value is given as “with no effect”.

In a further assay the parent is B3. The settings on record: with rb6i2_human ERC1, Q8IUD2.
Consider MSRVPSPPPPAEMSSGPVAESWCYTQIKVVKFSYMWTINNFSFCREEMGEVIKSSTFSSGANDKLKWCLRVNPKGLDEESKDYLSLYLLLVSCPKSEVRAKCKFSILNAKGEETKAMESQRAYRFVQGKDWGFKKFIRRDFLLDEANGLLPDDKLTLFCEVSVVQDSVNISGQNTMNMVKVPECRLADELGGLWENSRFTDCCLCVAGQEFQAHKAILAARSPVFSAMFEHEMEESKKNRVEINDVEPEVFKEMMCFIYTGKAPNLDKMADDLLAAADKYALERLKVMCEDALCSNLSVENAAEILILADLHSADQLKTQAVDFINYHASDVLETSGWKSMVVSHPHLVAEAYRSLASAQCPFLGPPRKRLKQS [F102C], for which the “effect of a mutation on the interaction” value is given as “with no effect”.

Variants of B3 are the subject of the next assay. The following applies: with rb6i2_human ERC1, Q8IUD2. The source holds these as a separate data set.
On to MSRVPSPPPPAEMSSGPVAESWCYTQIKVVKFSYMWTINNFSFCREEMGEVIKSSTFSSGANDKLKWCLRVNPKGLDEESKDYLSLYLLLVSCPKSEVRAKFKFSILNAKGEETKAMESQRAYRFVQGKDWGLKKFIRRDFLLDEANGLLPDDKLTLFCEVSVVQDSVNISGQNTMNMVKVPECRLADELGGLWENSRFTDCCLCVAGQEFQAHKAILAARSPVFSAMFEHEMEESKKNRVEINDVEPEVFKEMMCFIYTGKAPNLDKMADDLLAAADKYALERLKVMCEDALCSNLSVENAAEILILADLHSADQLKTQAVDFINYHASDVLETSGWKSMVVSHPHLVAEAYRSLASAQCPFLGPPRKRLKQS [F133L], for which the “effect of a mutation on the interaction” value is “with no effect”.

These data come from IntAct's records for PubMed 35512704.
